According to publication PMC7822592, “The half-life of the bone-derived hormone osteocalcin is regulated through O-glycosylation in mice, but not in humans” (eLife, 2020):
No end group written: not given here.

Key:
INS-1 832/3 cells = experiment: Ins1 gene expression in INS-1 832/3 cells treated with ucOCN; assay type: cell-based, rat; conditions: 8 hr; for Ins1 gene expression (Fold change relative to vehicle): 0.3 ng/mL, qPCR
Experimental: The INS-1 832/3 rat insulinoma cell line (Millipore-Sigma) was cultured in RPMI-1640 with 11.1 mM D-glucose, supplemented with 2 mM L-glutamine, 1 mM sodium pyruvate, 10 mM HEPES, 0.05 mM β-mercaptoethanol and 10% FBS ([Hohmeier et al., 2000]). On day 1, cells were plated at 3 × 10^5 cells per well in 12-well plates and on day 5, cells were washed with PBS and incubated with culture media containing 5 mM D-glucose. Twenty-four hours later, cells were washed with PBS and incubated for 4 hr in culture media containing 1% FBS, 5 mM D-glucose and 0.1% BSA. OCN was added for 8 hr before supernatants and cells were harvested. ucOCN and O-gly ucOCN concentration were measured in supernatants by ELISA and cells were lyzed and RNA extracted as described in the material and methods section. Gene expression was analyzed using rat specific primers for Ins1 and Gapdh.

[1] = Ex vivo half-life of mouse OCN in plasma; assay type: in vitro ADME; conditions: 100 ng/ml; for % OCN from initial: Bglap-/- mouse plasma
Experimental: The mouse OCN ex vivo half-life assays were performed with fresh plasma (lithium heparin) collected from four independent Bglap-/- mice. Glycosylated OCN produced in HEK293 cells and non-glycosylated OCN, produced in bacteria as previously described ([Ferron et al., 2012]), were incubated at 100 ng/ml in plasma at 37°C and OCN level was measured at indicated time points using the total mouse OCN ELISA assay described previously ([Ferron et al., 2010b]). […] The detection antibody is a goat polyclonal antibody directed against the C-terminal region (amino acids 26 to 46) of mouse OCN (anti-CTERM OCN). This assay detects with the same sensitivity glycosylated and non-glycosylated mouse OCN at concentration of 50 ng/ml or less (Figure 3—figure supplement 2). Therefore, all samples were diluted to be in this range before being measured by the ELISA. Human OCN half-life assay was performed ex vivo using Bglap-/- mice plasma and human OCN at 60 ng/ml. Human OCN level was measured at different time point using the human ucOCN ELISA described above. At the experiment start point (T0), an aliquot of plasma was diluted in ELISA assay buffer and kept on ice for OCN measurements. In some experiments, plasma was heat-inactivated for 30 min at 56°C, or treated with EDTA (10 mM, Wisent), phenylmethylsulfonyl fluoride (PMSF, 10 mM, Sigma), pepstatin A (Pep A, 10 μM, Sigma) which inhibits aspartic proteases (pepsin, cathepsin D, renin, chymosin), RVKR (Dec-RVKR-CMK, 50 μM; Tocris) or talabostat (10 mM; Tocris). Results are calculated in percentage relative to the initial concentration of non-glycosylated and glycosylated OCN respectively.

Substance: ucOCN: Non-glycosylated uncarboxylated mouse osteocalcin produced in bacteria (YLGASVPSPDPLEPTREQCELNPACDELSDQYGLKTAYKRIYGITI; ends and bridges not checked; cysteine pairing not given here; UniProt P86546 50-95, looked up)
- Ins1 gene expression (Fold change relative to vehicle) (INS-1 832/3 cells; replicate 1): 0.663 Fold change
- Ins1 gene expression (Fold change relative to vehicle) (INS-1 832/3 cells; replicate 2): 1.9 Fold change
- Ins1 gene expression (Fold change relative to vehicle) (INS-1 832/3 cells; replicate 3): 0.6 Fold change
- Ins1 gene expression (Fold change relative to vehicle) (INS-1 832/3 cells; replicate 4): 1.4 Fold change
- Ins1 gene expression (Fold change relative to vehicle) (INS-1 832/3 cells; replicate 5): 0.337 Fold change
- Ins1 gene expression (Fold change relative to vehicle) (INS-1 832/3 cells; replicate 6): 0.4 Fold change
- Ins1 gene expression (Fold change relative to vehicle) (INS-1 832/3 cells; replicate 7): 2.7 Fold change
- Ins1 gene expression (Fold change relative to vehicle) (INS-1 832/3 cells; replicate 8): 3.6 Fold change
- Ins1 gene expression (Fold change relative to vehicle) (INS-1 832/3 cells; replicate 9): 2.4 Fold change
- Ins1 gene expression (Fold change relative to vehicle) (INS-1 832/3 cells; replicate 10): 1.3 Fold change
- Ins1 expression increase (INS-1 832/3 cells; 0.3 ng/ml, quantitative PCR): 1.5 fold
- stability in saline solution containing 3.5% BSA ([1]; 37°C, 2 hr, ELISA): stable
- % OCN from initial ([1]; 37°C, 0 min, ELISA, replicate 1): 100.0%
- % OCN from initial ([1]; 37°C, 0 min, ELISA, replicate 2): 100.0%
- % OCN from initial ([1]; 37°C, 0 min, ELISA, replicate 3): 100.0%
- % OCN from initial ([1]; 37°C, 15 min, ELISA, replicate 1): 87.1%
- % OCN from initial ([1]; 37°C, 15 min, ELISA, replicate 2): 96.1%
- % OCN from initial ([1]; 37°C, 15 min, ELISA, replicate 3): 88.6%
- % OCN from initial ([1]; 37°C, 30 min, ELISA, replicate 1): 81.2%
- % OCN from initial ([1]; 37°C, 30 min, ELISA, replicate 2): 85.3%
- % OCN from initial ([1]; 37°C, 30 min, ELISA, replicate 3): 89.8%
- % OCN from initial ([1]; 37°C, 60 min, ELISA, replicate 1): 73.3%
- % OCN from initial ([1]; 37°C, 60 min, ELISA, replicate 2): 71.4%
- % OCN from initial ([1]; 37°C, 60 min, ELISA, replicate 3): 69.0%
- % OCN from initial ([1]; 37°C, 90 min, ELISA, replicate 1): 67.3%
- % OCN from initial ([1]; 37°C, 90 min, ELISA, replicate 2): 65.7%
- % OCN from initial ([1]; 37°C, 90 min, ELISA, replicate 3): 66.9%
- % OCN from initial ([1]; 37°C, 120 min, ELISA, replicate 1): 60.1%
- % OCN from initial ([1]; 37°C, 120 min, ELISA, replicate 2): 56.6%
- % OCN from initial ([1]; 37°C, 120 min, ELISA, replicate 3): 51.9%
- % OCN from initial ([1]; 37°C, 180 min, ELISA, replicate 1): 51.9%
- % OCN from initial ([1]; 37°C, 180 min, ELISA, replicate 2): 46.9%
- % OCN from initial ([1]; 37°C, 180 min, ELISA, replicate 3): 43.8%
- % OCN from initial ([1]; 37°C, 300 min, ELISA, replicate 1): 36.9%
- % OCN from initial ([1]; 37°C, 300 min, ELISA, replicate 2): 36.3%
- % OCN from initial ([1]; 37°C, 300 min, ELISA, replicate 3): 30.7%
- % OCN from initial ([1]; Figure 3D, 2hrs, 4°C, Not HI, ELISA, replicate 1): 108.8%
- % OCN from initial ([1]; Figure 3D, 2hrs, 4°C, Not HI, ELISA, replicate 2): 99.4%
- % OCN from initial ([1]; Figure 3D, 2hrs, 4°C, Not HI, ELISA, replicate 3): 94.3%
- % OCN from initial ([1]; Figure 3D, 2hrs, 37°C, HI (heat-inactivated plasma), ELISA, replicate 1): 108.8%
- % OCN from initial ([1]; Figure 3D, 2hrs, 37°C, HI (heat-inactivated plasma), ELISA, replicate 2): 108.9%
- % OCN from initial ([1]; Figure 3D, 2hrs, 37°C, HI (heat-inactivated plasma), ELISA, replicate 3): 82.4%
- % OCN from initial ([1]; Figure 3D, 2hrs, 37°C, Not HI, ELISA, replicate 1): 34.6%
- % OCN from initial ([1]; Figure 3D, 2hrs, 37°C, Not HI, ELISA, replicate 2): 23.3%
- % OCN from initial ([1]; Figure 3D, 2hrs, 37°C, Not HI, ELISA, replicate 3): 37.9%
- % OCN from initial ([1]; Figure 3D, T0, ELISA, replicate 1): 101.3%
